For orientation: Km means the concentration of substrate that gives half-maximal velocity. One may read the kcat as the maximal rate divided by the concentration of active sites. In general, kcat/Km refers to the turnover number divided by the Michaelis constant.

Substrate in data set [1]: CCCCCCC=O
The data set is described as follows: GC headspace assay of n-hexane formation. In kind it is biochemical, Synechococcus elongatus. Conditions: chemical reductants PMS/NADH, ferrous ammonium sulfate, HEPES pH 7.2, 100 mM KCl, 10% glycerol, 4% DMSO, 37°C (conditions of the kcat assay).

Substrate in the data set “purified protein”: NC(=O)C1=CN([C@@H]2O[C@H](COP(=O)(O)OP(=O)(O)OC[C@H]3O[C@@H](n4cnc5c(N)ncnc54)[C@H](OP(=O)(O)O)[C@@H]3O)[C@@H](O)[C@H]2O)C=CC1
The data set is described as follows: purified protein. It is filed as biochemical, Synechococcus elongatus. Conditions: 0.7 mM potassium ferricyanide, 50 mM Tris-HCl pH 8.0, 25°C.

B1: ADO 1593 (Synechococcus elongatus PCC 7942 = FACHB-805) (protein)
chain: MPQLEASLELDFQSESYKDAYSRINAIVIEGEQEAFDNYNRLAEMLPDQRDELHKLAKMEQRHMKGFMACGKNLSVTPDMGFAQKFFERLHENFKAAAAEGKVVTCLLIQSLIIECFAIAAYNIYIPVADAFARKITEGVVRDEYLHRNFGEEWLKANFDASKAELEEANRQNLPLVWLMLNEVADDARELGMERESLVEDFMIAYGEALENIGFTTREIMRMSAYGLAAV
notes: apo-ADO reconstituted with ferrous iron
For B1, in data set [1], the Km is 224 ± 40 µM and the kcat worked out at 0.002 ± 0.00033 s⁻¹.

B2: FNR (SynPcc7942_0978) (Synechococcus elongatus PCC 7942 = FACHB-805) (protein)
chain: MLNASVAGGAATTTYGNRLFIYEVIGLRQAEGEPSDSSIRRSGSTFFKVPYSRMNQEMQRILRLGGKIVSIRPAEEAAANNGAAPLQAAAEEPAAAPTPAPAAKKHSAEDVPVNIYRPNKPFVGKVLSNEPLVQEGGIGVVQHLTFDISEGDLRYIEGQSIGIIPDGTDDKGKPHKLRLYSIASTRHGDHVDDKTVSLCVRQLQYQNEAGETINGVCSTFLCGLKPGDDVKITGPVGKEMLLPADTDANVIMMGTGTGIAPFRAYLWRMFKDNERAINSEYQFNGKAWLIFGIPTTANILYKEELEALQAQYPDNFRLTYAISREQKNEAGGRMYIQDRVAEHADEIWNLLKDEKTHVYICGLRGMEDGIDQAMTVAAAKEDVVWSDYQRTLKKAGRWHVETY
For the protein B2, in the data set “purified protein”, the Km was 92.5 ± 7.6 µM, the kcat turned out to be 227 ± 7 s⁻¹ and the kcat/Km turned out to be 2.5e+06 ± 300000 M⁻¹ s⁻¹.

The values are drawn from paper PMC3691600, “Conversion of fatty aldehydes into alk (a/e)nes by in vitro reconstituted cyanobacterial aldehyde-deformylating oxygenase with the cognate electron transfer system” (Biotechnology for Biofuels, 2013).
